Publication PMC8573169, “Structural basis for the inhibition of the Bacillus subtilis c-di-AMP cyclase CdaA by the phosphoglucomutase GlmM” (The Journal of Biological Chemistry, 2021)
Each block holds one binder with its values, some of them ahead of it.

B2: full-length B. subtilis GlmM (phosphoglucosamine mutase), His-tagged (enzyme, UniProt O34824 1-448, looked up)
chain: MGKYFGTDGVRGVANSELTPELAFKVGRFGGYVLTKDKQRPKVLIGRDTRISGHMLEGALVAGLLSIGAEVMRLGVISTPGVSYLTKAMDAEAGVMISASHNPVQDNGIKFFGGDGFKLSDEQEAEIERLMDEPEDKLPRPVGADLGLVNDYFEGGQKYLQFLKQTADEDFTGIHVALDCANGATSSLATHLFADLDADVSTMGTSPNGLNINDGVGSTHPEALSAFVKEKNADLGLAFDGDGDRLIAVDEKGNIVDGDQIMYICSKHLKSEGRLKDDTVVSTVMSNLGFYKALEKEGIKSVQTAVGDRYVVEAMKKDGYNVGGEQSGHLIFLDYNTTGDGLLSAIMLMNTLKATGKPLSELAAEMQKFPQLLVNVRVTDKYKVEENEKVKAVISEVEKEMNGDGRILVRPSGTEPLVRVMAEAKTKELCDEYVNRIVEVVRSEMGLE
notes: GlmM of B. subtilis strain 168, full-length protein; also called glmM-his; phosphoglucomutase GlmM; source: E. coli BL21(DE3), purified (Ni-NTA, SEC); also in lysate, mixed with the partner's lysate before Ni-NTA and SEC; not shown: His6, C-terminal, kept

Experiments:
[1] = biological target: the molecule itself; test: crystal structure; purified CdaACD:GlmM_(F369) complex at 10 mg/ml, two conditions (complex 1, 3.6 A; complex 2, 4.2 A); three complexes in the asymmetric unit
[2] = biological target: the molecule itself; test: SEC-SAXS; purified proteins or purified complexes (CdaACD 5 mg/ml, GlmM 24 mg/ml, CdaACD:GlmM 24 mg/ml, CdaACD:GlmM_(F369) 10 mg/ml) on a Shodex KW403 column in 30 mM Tris pH 7.5, 150 mM NaCl, with continuous SAXS data collection; envelopes fitted with the crystal structures
[3] = biological target: B2; test: MST; fluorescently labelled (RED-NHS) CdaACD at 25 nM final, unlabelled GlmM 0.78 uM to 800 uM final; 10 mM HEPES pH 7.5, 150 mM NaCl, 0.05% Tween-20; Monolith NT.115, LED power 95%, MST power 80%; five runs; details: both partners purified
[4] = biological target: the molecule itself; test: crystal structure; tag-less CdaACD at 4 mg/ml; 0.1 M sodium cacodylate pH 6.5, 0.1 M ammonium sulfate, 0.3 M sodium formate, 6% PEG 8000, 3% gamma-PGA; dimer in the asymmetric unit; 2.8 A

B1: B. subtilis GlmM_(F369) variant lacking the C-terminal domain 4, His-tagged (domain or fragment, UniProt O34824 1-369, looked up)
chain: MGKYFGTDGVRGVANSELTPELAFKVGRFGGYVLTKDKQRPKVLIGRDTRISGHMLEGALVAGLLSIGAEVMRLGVISTPGVSYLTKAMDAEAGVMISASHNPVQDNGIKFFGGDGFKLSDEQEAEIERLMDEPEDKLPRPVGADLGLVNDYFEGGQKYLQFLKQTADEDFTGIHVALDCANGATSSLATHLFADLDADVSTMGTSPNGLNINDGVGSTHPEALSAFVKEKNADLGLAFDGDGDRLIAVDEKGNIVDGDQIMYICSKHLKSEGRLKDDTVVSTVMSNLGFYKALEKEGIKSVQTAVGDRYVVEAMKKDGYNVGGEQSGHLIFLDYNTTGDGLLSAIMLMNTLKATGKPLSELAAEMQKF
notes: GlmM of B. subtilis strain 168, residues Met1 to Phe369 (domains 1 to 3, lacking the flexible C-terminal domain 4); also called truncated GlmM; glmM_(F369)-his; source: E. coli BL21(DE3), purified (Ni-NTA, SEC); also in lysate, mixed with the partner's lysate before Ni-NTA and SEC; not shown: His6, C-terminal, kept
- stoichiometry N [1]: 2

Binder: B2
- stoichiometry N [2]: 2

- Kd [3]: 14.4 ± 0.962 µM
B3: B. subtilis CdaA catalytic domain (CdaACD), His-tagged (domain or fragment, UniProt Q45589 97-273, looked up)
chain: FFSRSGTPVEEAQQKTIEAITKAINYMAKRRIGALLTIERDTGMGDYIETGIPLNAKVSSELLINIFIPNTPLHDGAVIMKNNEIAAAACYLPLSESPFISKELGTRHRAAVGISEVTDSLTIIVSEETGGVSVAKNGDLHRELTEEALKEMLEAEFKKNTRDTSSNRWYWRGKKNG
notes: C-terminal catalytic (DAC) domain of the c-di-AMP cyclase CdaA of B. subtilis strain 168, starting from amino acid Phe97; The His tag is thrombin cleavable; For MST the protein was labelled with an amine-reactive dye (Monolith Protein Labeling RED-NHS 2nd Generation kit); also called soluble catalytic domain of the c-di-AMP cyclase CdaA; his-cdaACD; source: E. coli BL21(DE3), purified (Ni-NTA, …)
- stoichiometry N [1]: 2

B4: tag-less B. subtilis CdaACD (domain or fragment, UniProt Q45589 97-273, looked up)
chain: FFSRSGTPVEEAQQKTIEAITKAINYMAKRRIGALLTIERDTGMGDYIETGIPLNAKVSSELLINIFIPNTPLHDGAVIMKNNEIAAAACYLPLSESPFISKELGTRHRAAVGISEVTDSLTIIVSEETGGVSVAKNGDLHRELTEEALKEMLEAEFKKNTRDTSSNRWYWRGKKNG
notes: C-terminal catalytic (DAC) domain of the c-di-AMP cyclase CdaA of B. subtilis strain 168, starting from amino acid Phe97; also called tag less CdaACD; source: E. coli BL21(DE3), purified (Ni-NTA, SEC), His tag removed with thrombin, SEC; not shown: His6, N-terminal, cleaved
- stoichiometry N [4]: 2
